From the supplement of paper PMC5998384

Tests used:
HeLa Kyoto [1] = assay: melting temperature (median over replicates), in situ; higher = more thermally stable
HeLa Kyoto [2] = assay: solubility change mitosis vs G1/S (difference of NP-40 vs SDS log2 ratios) (log2 ratio difference); higher = more soluble in mitosis
HeLa Kyoto [3] = assay: solubility in G1/S (NP-40 vs SDS abundance) (log2 ratio); higher = more soluble; conditions: cell cycle stage: G1/S
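Throughout, for melting temperature (median over replicates), in situ: HeLa Kyoto cells synchronized by double thymidine or nocodazole block, proteins quantified by TMT10plex mass spectrometry, three independent biological replicates.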
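Throughout, for solubility change mitosis vs G1/S (difference of NP-40 vs SDS log2 ratios): synchronized HeLa Kyoto cells (double thymidine block for G1/S, nocodazole release for mitosis), protein amounts in NP-40 versus SDS lysates quantified by mass spectrometry, three biological replicates.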
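Throughout, for solubility in G1/S (NP-40 vs SDS abundance): HeLa Kyoto cells arrested at G1/S by double thymidine block, proteins quantified by TMT10plex mass spectrometry in mild NP-40 versus SDS extracts, three biological replicates.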

Chain of HMGN3 (chain, as listed by the source): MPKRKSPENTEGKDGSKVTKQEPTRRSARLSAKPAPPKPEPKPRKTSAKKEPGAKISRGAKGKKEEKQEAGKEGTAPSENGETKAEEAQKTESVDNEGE

Substance | melting temperature (HeLa Kyoto [1]; cell cycle stage: G1/S) | melting temperature (HeLa Kyoto [1]; cell cycle stage: mitosis) | solubility change mitosis (log2) (HeLa Kyoto [2]) | solubility in G1/S (log2) (HeLa Kyoto [3])
MSSRSTKDLIKSKWGSKPSNSKSETTLEKLKGEIAHLKTSVDEITSGKGKLTDKERHRLLEKIRVLEAEKEKNAYQLTEKDKEIQRLRDQLKARYSTTTLLEQLEETTREGERREQVLKALSEEKDVLKQQLSAATSRIAELESKTNTLRLSQTVAPNCFNSSINNIHEMEIQLKDALEKNQQWLVYDQQREVYVKGLLAKIFELEKKTETAAHSLPQQTKKPESEGYLQEEKQKCYNDLLASAKKDLEVERQTITQLSFELSEFRRKYEETQKEVHNLNQLLYSQRRADVQHLEDDRHKTEKIQKLREENDIARGKLEEEKKRSEELLSQVQFLYTSLLKQQEEQTRVALLEQQMQACTLDFENEKLDRQHVQHQLHVILKELRKARNQITQLESLKQLHEFAITEPLVTFQGETENREKVAASPKSPTAALNESLVECPKCNIQYPATEHRDLLVHVEYCSK [CEP55] | 48.1 °C | 48.9 °C | 0.238 | 0.417
HMGN3 |  | 56.8 °C | 1.55 | -0.266
NBEAL2 | 52 °C |  | -0.0719 | -0.103
MAQRLLLRRFLASVISRKPSQGQWPPLTSRALQTPQCSPGGLTVTPNPARTIYTTRISLTTFNIQDGPDFQDRVVNSETPVVVDFHAQWCGPCKILGPRLEKMVAKQHGKVVMAKVDIDDHTDLAIEYEVSAVPTVLAMKNGDVVDKFVGIKDEDQLEAFLKKLIG [TXN2] | 53.5 °C | 52.9 °C | 0.017 | 0.576
MMGCFALQTVDTELTADSVEWCPLQGCRHLLACGTYQLRRPEDRPAGPQNKGGMEVKEPQVRLGRLFLYSFNDNNSIHPLVEVQRKDTSAILDMKWCHIPVAGHALLGLADASGSIQLLRLVESEKSHVLEPLSSLALEEQCLALSLDWSTGKTGRAGDQPLKIISSDSTGQLHLLMVNETRPRLQKVASWQAHQFEAWIAAFNYWHPEIVYSGGDDGLLRGWDTRVPGKFLFTSKRHTMGVCSIQSSPHREHILATGSYDEHILLWDTRNMKQPLADTPVQGGVWRIKWHPFHHHLLLAACMHSGFKILNCQKAMEERQEATVLTSHTLPDSLVYGADWSWLLFRSLQRAPSWSFPSNLGTKTADLKGASELPTPCHECREDNDGEGHARPQSGMKPLTEGMRKNGTWLQATAATTRDCGVNPEEADSAFSLLATCSFYDHALHLWEWEGN [DPH7] |  | 57.1 °C | -0.0679 | -0.0249
MHQPPESTAAAAAAADISARKMAHPAMFPRRGSGSGSASALNAAGTGVGSNATSSEDFPPPSLLQPPPPAASSTSGPQPPPPQSLNLLSQAQLQAQPLAPGGTQMKKKSGFQITSVTPAQISASISSNNSIAEDTESYDDLDESHTEDLSSSEILDVSLSRATDLGEPERSSSEETLNNFQEAETPGAVSPNQPHLPQPHLPHLPQQNVVINGNAHPHHLHHHHQIHHGHHLQHGHHHPSHVAVASASITGGPPSSPVSRKLSTTGSSDSITPVAPTSAVSSSGSPASVMTNMRAPSTTGGIGINSVTGTSTVNNVNITAVGSFNPNVTSSMLGNVNISTSNIPSAAGVSVGPGVTSGVNVNILSGMGNGTISSSAAVSSVPNAAAGMTGGSVSSQQQQPTVNTSRFRVVKLDSSSEPFKKGRWTCTEFYEKENAVPATEGVLINKVVETVKQNPIEVTSERESTSGSSVSSSVSTLSHYTESVGSGEMGAPTVVVQQQQQQQQQQQQQPALQGVTLQQMDFGSTGPQSIPAVSIPQSISQSQISQVQLQSQELSYQQKQGLQPVPLQATMSAATGIQPSPVNVVGVTSALGQQPSISSLAQPQLPYSQAAPPVQTPLPGAPPPQQLQYGQQQPMVSTQMAPGHVKSVTQNPASEYVQQQPILQTAMSSGQPSSAGVGAGTTVIPVAQPQGIQLPVQPTAVPAQPAGASVQPVGQAPAAVSAVPTGSQIANIGQQANIPTAVQQPSTQVPPSVIQQGAPPSSQVVPPAQTGIIHQGVQTSAPSLPQQLVIASQSSLLTVPPQPQGVEPVAQGIVSQQLPAVSSLPSASSISVTSQVSSTGPSGMPSAPTNLVPPQNIAQTPATQNGNLVQSVSQPPLIATNTNLPLAQQIPLSSTQFSAQSLAQAIGSQIEDARRAAEPSLVGLPQTISGDSGGMSAVSDGSSSSLAASASLFPLKVLPLTTPLVDGEDESSSGASVVAIDNKIEQAMDLVKSHLMYAVREEVEVLKEQIKELIEKNSQLEQENNLLKTLASPEQLAQFQAQLQTGSPPATTQPQGTTQPPAQPASQGSGPTA [TSC22D1] | 54.4 °C | 53.1 °C | -0.0765 | -0.382
MAGSPELVVLDPPWDKELAAGTESQALVSATPREDFRVRCTSKRAVTEMLQLCGRFVQKLGDALPEEIREPALRDAQWTFESAVQENISINGQAWQEASDNCFMDSDIKVLEDQFDEIIVDIATKRKQYPRKILECVIKTIKAKQEILKQYHPVVHPLDLKYDPDPAPHMENLKCRGETVAKEISEAMKSLPALIEQGEGFSQVLRMQPVIHLQRIHQEVFSSCHRKPDAKPENFITQIETTPTETASRKTSDMVLKRKQTKDCPQRKWYPLRPKKINLDT [NSL1] | 50.2 °C | 49.9 °C | -0.0661 | 0.0226
MDSELKEEIPVHEEFILCGGAETQVLKCGPWTDLFHDQSVKRPKLLIFIIPGNPGFSAFYVPFAKALYSLTNRRFPVWTISHAGHALAPKDKKILTTSEDSNAQEIKDIYGLNGQIEHKLAFLRTHVPKDMKLVLIGHSIGSYFTLQMLKRVPELPVIRAFLLFPTIERMSESPNGRIATPLLCWFRYVLYVTGYLLLKPCPETIKSLLIRRGLQVMNLENEFSPLNILEPFCLANAAYLGGQEMMEVVKRDDETIKEHLCKLTFYYGTIDPWCPKEYYEDIKKDFPEGDIRLCEKNIPHAFITHFNQEMADMIADSLKDDLSKM [LDAH] | 52.3 °C |  | -0.331 | 0.0802
MGPRARPALLLLMLLQTAVLQGRLLRSHSLHYLFMGASEQDLGLSLFEALGYVDDQLFVFYDHESRRVEPRTPWVSSRISSQMWLQLSQSLKGWDHMFTVDFWTIMENHNHSKESHTLQVILGCEMQEDNSTEGYWKYGYDGQDHLEFCPDTLDWRAAEPRAWPTKLEWERHKIRARQNRAYLERDCPAQLQQLLELGRGVLDQQVPPLVKVTHHVTSSVTTLRCRALNYYPQNITMKWLKDKQPMDAKEFEPKDVLPNGDGTYQGWITLAVPPGEEQRYTCQVEHPGLDQPLIVIWEPSPSGTLVIGVISGIAVFVVILFIGILFIILRKRQGSRGAMGHYVLAERE [HFE] | 55.9 °C | 57.2 °C | 0.0716 | 0.207
MGQQVGRVGEAPGLQQPQPRGIRGSSAARPSGRRRDPAGRTTETGFNIFTQHDHFASCVEDGFEGDKTGGSSPEALHRPYGCDVEPQALNEAIRWSSKENLLGATESDPNLFVALYDFVASGDNTLSITKGEKLRVLGYNQNGEWSEVRSKNGQGWVPSNYITPVNSLEKHSWYHGPVSRSAAEYLLSSLINGSFLVRESESSPGQLSISLRYEGRVYHYRINTTADGKVYVTAESRFSTLAELVHHHSTVADGLVTTLHYPAPKCNKPTVYGVSPIHDKWEMERTDITMKHKLGGGQYGEVYVGVWKKYSLTVAVKTLKEDTMEVEEFLKEAAVMKEIKHPNLVQLLGVCTLEPPFYIVTEYMPYGNLLDYLRECNREEVTAVVLLYMATQISSAMEYLEKKNFIHRDLAARNCLVGENHVVKVADFGLSRLMTGDTYTAHAGAKFPIKWTAPESLAYNTFSIKSDVWAFGVLLWEIATYGMSPYPGIDLSQVYDLLEKGYRMEQPEGCPPKVYELMRACWKWSPADRPSFAETHQAFETMFHDSSISEEVAEELGRAASSSSVVPYLPRLPILPSKTRTLKKQVENKENIEGAQDATENSASSLAPGFIRGAQASSGSPALPRKQRDKSPSSLLEDAKETCFTRDRKGGFFSSFMKKRNAPTPPKRSSSFREMENQPHKKYELTGNFSSVASLQHADGFSFTPAQQEANLVPPKCYGGSFAQRNLCNDDGGGGGGSGTAGGGWSGITGFFTPRLIKKTLGLRAGKPTASDDTSKPFPRSNSTSSMSSGLPEQDRMAMTLPRNCQRSKLQLERTVSTSSQPEENVDRANDMLPKKSEESAAPSRERPKAKLLPRGATALPLRTPSGDLAITEKDPPGVGVAGVAAAPKGKEKNGGARLGMAGVPEDGEQPGWPSPAKAAPVLPTTHNHKVPVLISPTLKHTPADVQLIGTDSQGNKFKLLSEHQVTSSGDKDRPRRVKPKCAPPPPPVMRLLQHPSICSDPTEEPTALTAGQSTSETQEGGKKAALGAVPISGKAGRPVMPPPQVPLPTSSISPAKMANGTAGTKVALRKTKQAAEKISADKISKEALLECADLLSSALTEPVPNSQLVDTGHQLLDYCSGYVDCIPQTRNKFAFREAVSKLELSLQELQVSSAAAGVPGTNPVLNNLLSCVQEISDVVQR [ABL2] | 49.2 °C | 49.1 °C | -0.139 | 0.0755
MEPPNLYPVKLYVYDLSKGLARRLSPIMLGKQLEGIWHTSIVVHKDEFFFGSGGISSCPPGGTLLGPPDSVVDVGSTEVTEEIFLEYLSSLGESLFRGEAYNLFEHNCNTFSNEVAQFLTGRKIPSYITDLPSEVLSTPFGQALRPLLDSIQIQPPGGSSVGRPNGQS [DESI1] | 47.1 °C | 48.4 °C | -0.0645 | 0.341
MDALEGESFALSFSSASDAEFDAVVGYLEDIIMDDEFQLLQRNFMDKYYLEFEDTEENKLIYTPIFNEYISLVEKYIEEQLLQRIPEFNMAAFTTTLQHHKDEVAGDIFDMLLTFTDFLAFKEMFLDYRAEKEGRGLDLSSGLVVTSLCKSSSLPASQNNLRH [ARL2BP] | 50.9 °C | 53 °C | 0.0405 | -0.148
MELIQDTSRPPLEYVKGVPLIKYFAEALGPLQSFQARPDDLLISTYPKSGTTWVSQILDMIYQGGDLEKCHRAPIFMRVPFLEFKAPGIPSGMETLKDTPAPRLLKTHLPLALLPQTLLDQKVKVVYVARNAKDVAVSYYHFYHMAKVHPEPGTWDSFLEKFMVGEVSYGSWYQHVQEWWELSRTHPVLYLFYEDMKENPKREIQKILEFVGRSLPEETVDFVVQHTSFKEMKKNPMTNYTTVPQEFMDHSISPFMRKGMAGDWKTTFTVAQNERFDADYAEKMAGCSLSFRSEL [SULT1A1] |  | 49.2 °C | -0.0949 | 0.0556
CHD8 | 46.5 °C | 50.1 °C | -0.0952 | -0.156
MTTAARPTFEPARGGRGKGEGDLSQLSKQYSSRDLPSHTKIKYRQTTQDAPEEVRNRDFRRELEERERAAAREKNRDRPTREHTTSSSVSKKPRLDQIPAANLDADDPLTDEEDEDFEEESDDDDTAALLAELEKIKKERAEEQARKEQEQKAEEERIRMENILSGNPLLNLTGPSQPQANFKVKRRWDDDVVFKNCAKGVDDQKKDKRFVNDTLRSEFHKKFMEKYIK [CWC15] | 55.4 °C | 55.1 °C | 0.681 | 0.0823
MDFENLFSKPPNPALGKTATDSDERIDDEIDTEVEETQEEKIKLECEQIPKKFRHSAISPKSSLHRKSRSKDYDVYSDNDICSQESEDNFAKELQQYIQAREMANAAQPEESTKKEGVKDTPQAAKQKNKNLKAGHKNGKQKKMKRKWPGPGNKGSNALLRNSGSQEEDGKPKEKQQHLSQAFINQHTVERKGKQICKYFLERKCIKGDQCKFDHDAEIEKKKEMCKFYVQGYCTRGENCLYLHNEYPCKFYHTGTKCYQGEYCKFSHAPLTPETQELLAKVLDTEKKSCK [ZC3H8] | 55.1 °C | 55.1 °C | 0.444 | -0.126
MASSAASSEHFEKLHEIFRGLHEDLQGVPERLLGTAGTEEKKKLIRDFDEKQQEANETLAEMEEELRYAPLSFRNPMMSKLRNYRKDLAKLHREVRSTPLTATPGGRGDMKYGIYAVENEHMNRLQSQRAMLLQGTESLNRATQSIERSHRIATETDQIGSEIIEELGEQRDQLERTKSRLVNTSENLSKSRKILRSMSRKVTTNKLLLSIIILLELAILGGLVYYKFFRSH [VTI1B] | 53.5 °C | 52.5 °C | 0.188 | 0.392
